Columns and labels:
[1] = system: cynomolgus CD39-expressing CHO cells (CHO-cyCD39); experiment: Inhibition of the enzymatic activity of cellular CD39 in CHO-cyCD39; format: cell-based, cynomolgus (Macaca fascicularis); conditions: result in words
Protocol: The inhibition of the CD39 enzymatic activity in CD39-expressing cells by antibodies was evaluated using Cell Titer Glo™ (Promega, reference G7571) that allows assessment of ATP hydrolysis through use of a reagent that generates a luminescent signal proportional to the amount of ATP present. The assay was thus designed to permit assessment of the inhibition of ATP hydrolyzed by CD39 in the cell culture supernatant. Briefly, 5×10^4 Ramos human lymphoma cells, 5×10^3 human CD39-, cynomolgus CD39- and mouse CD39-expressing CHO cells, were incubated 1 hour at 37° C. with anti-CD39 antibodies from 30 μg/ml to […]. Cells were then incubated with 20 μM ATP for 1 additional hour at 37° C. Plates were centrifuged for 2 min at 400 g and 50 μl cell supernatant are transferred in a luminescence microplate (white wells). 50 μl CellTiter-Glo® Reagent (CTG) was added to the supernatant and emitted light was quantified after a 5 min incubation in the dark using a Enspire™ luminometer. Anti-CD39 antibody efficacy was determined by comparing emitted light in presence of antibody with ATP alone (maximal light emission) and ATP together with cells (minimal light emission).
The inhibition by antibody I-394 of the ATPase activity of CD39 in CD39-expressing cells was evaluated using the assay used for inhibition of the enzymatic activity of cellular CD39 as described above (Methods).

[2] = molecular target: T1, human CD39 (vascular isoform) (Homo sapiens, UniProt P49961); experiment: ELISA titration on recombinant human CD39; format: binding; conditions: result in words
T1 sequence (P49961 1-510): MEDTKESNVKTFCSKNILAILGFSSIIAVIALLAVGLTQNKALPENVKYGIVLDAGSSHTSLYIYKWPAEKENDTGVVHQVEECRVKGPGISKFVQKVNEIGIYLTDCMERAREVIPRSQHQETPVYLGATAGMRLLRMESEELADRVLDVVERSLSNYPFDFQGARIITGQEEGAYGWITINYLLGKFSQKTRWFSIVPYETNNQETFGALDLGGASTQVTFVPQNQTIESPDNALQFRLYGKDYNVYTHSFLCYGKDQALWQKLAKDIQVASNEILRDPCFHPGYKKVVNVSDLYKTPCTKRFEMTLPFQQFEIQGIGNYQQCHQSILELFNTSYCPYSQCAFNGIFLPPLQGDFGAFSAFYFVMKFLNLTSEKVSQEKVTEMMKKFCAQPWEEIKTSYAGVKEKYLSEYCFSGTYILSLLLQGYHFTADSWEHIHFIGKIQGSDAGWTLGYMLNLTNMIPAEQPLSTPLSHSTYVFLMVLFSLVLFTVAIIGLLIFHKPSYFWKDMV
Protocol: Antibody I-394 was tested for binding to recombinant human CD39 isoforms (Rec-huCD39 isoforms) having amino acid sequences shown below were coated in 96-well plate in PBS 1× at 500 ng/ml or 1 μg/ml at 4° C. overnight. Wells were washed in TBS Tween 20, and further saturated 2H at RT in TBS Blocking buffer. Dose range concentration of primary antibody was incubated in TBS blocking buffer for 2 h at RT. Wells were washed in TBS Tween 20. […] Optical density was measured on Enspire™ at OD=450.

[3] = system: monocyte-derived DC (moDC); experiment: Activation of dendritic cells in presence of ATP (flow cytometry); format: cell-based, human; conditions: ATP at 0.125 mM, 0.25 mM or 0.5 mM; I-394 at 10 μg/ml
Protocol: While ATP has pro-inflammatory, CD39-mediated catabolism of ATP is believed to be able to impair dendritic cell (DC) activation, in turn altering a broader adaptive immune response against tumor antigen. In order to evaluate whether CD39 blockade using anti-CD39 antibodies could overcome CD39-mediated alteration of dendritic cell (DC) activation in the presence of ATP, we incubated monocyte-derived DC (moDC) with anti-CD39 antibodies in the presence of ATP.
Briefly, human monocytes were purified from human healthy blood and differentiated into MoDC in presence of GM-CSF and IL-4 during 6 days. […] In some cases, MoDC were preincubated during 1 hours in presence of CD39 inhibitor: […] (Tocris, 250 μM), CD73 inhibitor: APCP (Tocris 50 μM), anti-CD39 blocking antibody I-394 or BY40 (for BY40 see WO2009/095478), or anti-CD73 blocking antibodies. LPS (Invivogen, 10 ng/ml) was used as positive control. To assess resulting effect of ATP-mediated DC activation on CD4 T cells activation, ATP-activated DC were washed and then incubated with allogenic CD4 T cells (ratio 1 MoDC/4 T cells) for a mixed lymphocytes reaction (MLR) during 5 days. T cells activation and proliferation were analyzed through CD25 expression and Cell Trace Violet dilution by flow cytometry (FIG. 8).

[4] = molecular target: T2, CHO cells expressing human CD39 (Homo sapiens, UniProt P49961); experiment: Antibody titration on CHO-huCD39 by flow cytometry; format: binding; conditions: result in words
T2 construct: expressed in transfected cells; host or cells: CHO cells
T2 sequence (P49961 1-510): T1 sequence (P49961 1-510)
Protocol: (§1) Antibody I-394 was tested in two repeated experiments for binding to CHO cells expressing human CD39, CHO cells expressing cynomolgus (Macaca fascicularis) CD39, CHO cells expressing murine CD39, and human Ramos lymphoma cells (ATCC™, reference CRL-1596). Cells were incubated with various concentration of unlabeled anti-CD39 antibody from 30 μg/ml to 5×10^−4 μg/ml, for 30 minutes at 4° C. After washes, cells were incubated with Goat anti-mouse H+L labeled secondary antibody for 30 min at 4° C.

[5] = system: CHO cells expressing cynomolgus (Macaca fascicularis) CD39; experiment: Antibody titration on CHO-cyCD39 by flow cytometry; format: binding; conditions: result in words
Protocol: as §1

I-394: anti-CD39 antibody, VH SEQ ID NO: 6, VL SEQ ID NO: 7; human IgG1 Fc with L234A/L235E/G237A/A330S/P331S
blocking CD39 enzymatic activity in CHO-cyCD39 [1]: blocks | binding to CD39 in ELISA [2]: bound | ATP-induced moDC activation as assessed by HLA-DR or CD83 expression [3]: permitted moDC activation | binding to cells expressing human CD39 (CHO-huCD39) [4]: bound | binding to cells expressing cynomolgus CD39 (CHO-cyCD39) [5]: bound

Source: patent publication US11578136B2, “Compositions and methods for treating cancer” (INNATE PHARMA, priority 2017, dated 2023)
